Assay results as given in US20220064275A1 (SCHOLAR ROCK, published 2022).

How the values were obtained:
[1] = target: hGARP-proTGFβ1 complex on cells (human, UniProt Q14392 20-662; P01137 30-390); assay: cell-based or functional assay
[2] = target: hLTBP1-proTGFβ1 complex made by transfected cells (cell-based potency assay) (human, UniProt Q14766 347-1721; P01137 30-390); assay: cell-based or functional assay
[3] = target: hLTBP3-proTGFβ1 complex made by transfected cells (cell-based potency assay) (human, UniProt Q9NS15 44-1303; P01137 30-390); assay: cell-based or functional assay
[4] = target: hLRRC33-proTGFβ1 complex on cells (human, UniProt Q86YC3 19-692; P01137 30-390); assay: cell-based or functional assay
[5] = target: T1, human GARP-proTGFβ1 complex (human, UniProt Q14392 20-627; P01137 30-390); assay: BLI (Octet)
T1 construct: also called hGARP-proTGFβ1; hGARP

[6] = target: T2, human LTBP3-proTGFβ1 complex (human, UniProt Q9NS15 866-1039); assay: BLI (Octet)
T2 construct: range 866-1039; also called hLTBP3-proTGFβ1; hLTBP3

[7] = target: T3, human LRRC33-proTGFβ1 complex (human, UniProt Q86YC3 19-650; P01137 30-390); assay: BLI (Octet)
T3 construct: also called hLRRC33-proTGFβ1; hLRRC33

[8] = target: T4, human LTBP1-proTGFβ1 complex (human, UniProt Q14766 873-1507); assay: BLI (Octet)
T4 construct: range 873-1507; biotinylated in Octet and MSD-SET; also called hLTBP1-proTGFβ1; hLTBP1

human proTGFβ1 C4S [9] = target: T5, human proTGFβ1 C4S (human, UniProt P01137 30-390); assay: BLI (Octet Red384), proTGFβ1 C4S coupled to AR2G sensors, dissociation at pH 5; dissociation at pH 5
T5 construct: Small latent complex without presenting molecule; the cysteine that links to presenting molecules is changed to serine; also called small latent complex proTGFβ1 C4S; latent TGFβ1
Protocol: (§1) The antibodies were tested against sensor-immobilized human proTGFβ1 C4S, which contains a mutation in the prodomain to facilitate proTGFβ1 expression without disulfide linkage to a presentation molecule. Polystyrene 96-well black half area plates (Greiner Bio-One) and amine reactive second-generation (AR2G) biosensors (FortéBio) were utilized for this experiment.
(§2) AR2G biosensors were first allowed to hydrate in water offline for at least 10 minutes before the initiation of the experiment. Upon initiation of the experiment, AR2G tips were equilibrated in water for 1 minute. Then, the tips were moved into an activation solution for 5 minutes. The activation solution consists of 18 parts water, 1 part 400 mM EDC (1-Ethyl-3-[3-dimethylaminopropyl] carbodiimide hydrochloride), and 1 part 200 mM s-NHS (N-hydroxysulfosuccinimide). The activation solution is prepared immediately before use in the experiment. After tip activation, the tips were loaded for 3 minutes with a 10 ug/mL solution of human proTGFβ1 C4S in 10 mM sodium acetate buffer pH 5. After loading, the tips were quenched in ethanolamine pH 8.5 for 15 minutes. The tips were then baseline/blocked with a 20 minute incubation in 1× enhanced kinetics buffer.

[10] = target: T1, human GARP-proTGFβ1 complex; assay: MSD-SET, solution equilibrium titration
Protocol: (§3) MSD-SET assays were performed to measure affinities of the antibodies at equilibrium. Briefly, each test antibody was diluted 3-5 fold and samples were mixed with biotinylated antigen in a 48-well dish. The SET samples were equilibrated for 20-24 hours at room temperature. Meanwhile, a capture plate was coated with IgG (20 nM) and incubated overnight at 4° C. or 30 minutes at room temperature, followed by a blocking step with 5% BSA. After the capture plate was washed three times, SET samples were added and incubated for 150 seconds. The plate was washed once to remove unbound complexes. 250 ng/ml SA-Sulfotag was added then washed 3 times. 2× Read Buffer was added, and signals from the labeled bound complexes were read with the use of QuickPlex™ SQ 120 instrument.

[11] = target: T2, human LTBP3-proTGFβ1 complex; assay: MSD-SET, solution equilibrium titration
Protocol: as §3

[12] = target: T3, human LRRC33-proTGFβ1 complex; assay: MSD-SET, solution equilibrium titration
Protocol: as §3

[13] = target: T4, human LTBP1-proTGFβ1 complex; assay: MSD-SET, solution equilibrium titration
Protocol: as §3

human proTGFβ1 C4S [14] = target: T5, human proTGFβ1 C4S; assay: BLI (Octet Red384), proTGFβ1 C4S coupled to AR2G sensors, dissociation at pH 7; dissociation at pH 7
Protocol: as §1, §2

human proTGFβ1 C4S/R249A = target: T6, human proTGFβ1 C4S/R249A (human, UniProt P01137 30-390); assay: X-ray crystal structure of the ternary complex
T6 construct: Expressed with kifunensine and treated with endoglycosidase H; also called uncleavable human proTGFβ1 variant
T6 sequence (P01137 other isoform, or with tags, fused parts or gaps R249A R249A): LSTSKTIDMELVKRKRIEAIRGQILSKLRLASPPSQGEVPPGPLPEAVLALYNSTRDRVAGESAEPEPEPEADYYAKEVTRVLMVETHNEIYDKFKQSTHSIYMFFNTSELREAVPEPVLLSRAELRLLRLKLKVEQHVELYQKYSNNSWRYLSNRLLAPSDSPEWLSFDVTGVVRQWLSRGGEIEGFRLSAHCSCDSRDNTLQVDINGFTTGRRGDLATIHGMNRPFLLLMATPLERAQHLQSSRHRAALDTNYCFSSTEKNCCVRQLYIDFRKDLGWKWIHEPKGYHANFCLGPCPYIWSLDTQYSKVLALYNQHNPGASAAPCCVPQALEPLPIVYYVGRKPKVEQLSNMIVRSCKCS
Text: In this work, an uncleavable human proTGFβ1 C4S/R249A variant was used that spans residues 30-390 based on the full-length sequence of human proTGFβ1 (Uniprot ID P01137). The numbering system that will be used for the rest of this document will designate position 1 as the first amino acid residue after the removal of the signal sequence for proTGFβ isoforms. The C4S mutation renders proTGFβ1 not capable of covalent crosslinking to any known presenting molecules, e.g. LTBPs and GARP, while the R249A renders proTGFβ1 resistant to proprotein convertase/furin protease cleavage, thus maintaining proTGFβ1 in its uncleaved, proprotein form. […] The AbX Fab in this context was used as an auxiliary protein, which acts as a crystallization chaperone to increase the probability of obtaining protein crystals.
Crystallization experiments were performed at room temperature in a sitting drop format. […] X-ray diffraction data were collected at the SER-CAT beamline 22-ID at the Advanced Photon Source (APS) at the Argonne National Laboratory (ANL) using a Dectris Eiger 16M detector. The diffraction images were processed with X-ray Detector Software (XDS) in space group C2221 with an asymmetric unit containing one half of a 2:2:2 complex. The structure of the ternary complex was solved by molecular replacement using Phaser.

T2 sequence (Q9NS15 866-1039 limits assumed, chain 1 of 2): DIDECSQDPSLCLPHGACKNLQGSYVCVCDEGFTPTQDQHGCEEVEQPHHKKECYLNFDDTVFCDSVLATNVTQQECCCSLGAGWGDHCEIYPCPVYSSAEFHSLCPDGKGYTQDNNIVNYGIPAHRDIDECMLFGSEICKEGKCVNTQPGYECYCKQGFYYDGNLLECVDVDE
T2 sequence (chain, as listed by the source limits assumed, chain 2 of 2): as the sequence (P01137 other isoform, or with tags, fused parts or gaps R249A R249A) above, with S4C, A249R counted along it
T3 sequence (Q86YC3 other isoform, or with tags, fused parts or gaps limits assumed, chain 1 of 2): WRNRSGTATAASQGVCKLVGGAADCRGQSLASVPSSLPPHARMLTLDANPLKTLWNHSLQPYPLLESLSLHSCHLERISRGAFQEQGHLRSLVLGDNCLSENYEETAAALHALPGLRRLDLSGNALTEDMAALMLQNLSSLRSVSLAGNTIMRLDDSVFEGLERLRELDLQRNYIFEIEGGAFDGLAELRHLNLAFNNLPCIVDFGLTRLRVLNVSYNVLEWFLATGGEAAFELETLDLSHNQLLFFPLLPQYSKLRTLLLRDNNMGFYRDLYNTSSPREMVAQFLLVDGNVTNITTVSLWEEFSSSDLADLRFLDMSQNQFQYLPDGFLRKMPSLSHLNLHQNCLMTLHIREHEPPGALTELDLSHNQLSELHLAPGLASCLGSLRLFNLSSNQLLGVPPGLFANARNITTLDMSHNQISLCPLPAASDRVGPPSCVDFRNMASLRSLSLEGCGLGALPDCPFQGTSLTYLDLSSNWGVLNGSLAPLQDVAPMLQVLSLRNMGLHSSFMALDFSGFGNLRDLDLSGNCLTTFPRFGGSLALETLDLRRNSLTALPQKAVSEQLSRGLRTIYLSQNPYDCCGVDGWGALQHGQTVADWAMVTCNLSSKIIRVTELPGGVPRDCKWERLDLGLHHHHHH
T3 sequence (P01137 30-390 limits assumed, chain 2 of 2): as the sequence (P01137 other isoform, or with tags, fused parts or gaps R249A R249A) above, with S4C, A249R counted along it
T5 sequence (P01137 other isoform, or with tags, fused parts or gaps): as the sequence (P01137 other isoform, or with tags, fused parts or gaps R249A R249A) above, with A249R counted along it
T4 sequence (Q14766 873-1507 limits assumed, chain 1 of 2): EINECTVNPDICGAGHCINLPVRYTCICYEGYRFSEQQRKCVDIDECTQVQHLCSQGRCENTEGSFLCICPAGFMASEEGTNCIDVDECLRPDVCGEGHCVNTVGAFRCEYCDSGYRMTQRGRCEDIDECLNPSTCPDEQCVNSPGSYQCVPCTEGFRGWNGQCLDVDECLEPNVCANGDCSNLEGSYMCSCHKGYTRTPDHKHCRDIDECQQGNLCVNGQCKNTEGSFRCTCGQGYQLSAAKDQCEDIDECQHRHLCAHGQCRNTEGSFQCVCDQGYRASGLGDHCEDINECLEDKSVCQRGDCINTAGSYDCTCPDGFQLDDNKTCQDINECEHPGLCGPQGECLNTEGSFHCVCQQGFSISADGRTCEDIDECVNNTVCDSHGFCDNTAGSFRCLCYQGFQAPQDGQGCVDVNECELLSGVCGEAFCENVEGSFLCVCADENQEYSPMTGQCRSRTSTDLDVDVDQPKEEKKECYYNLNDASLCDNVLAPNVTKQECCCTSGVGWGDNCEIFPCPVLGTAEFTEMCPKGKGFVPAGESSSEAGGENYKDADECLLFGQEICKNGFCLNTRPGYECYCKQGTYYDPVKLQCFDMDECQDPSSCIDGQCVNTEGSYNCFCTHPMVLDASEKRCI
T4 sequence (chain, as listed by the source limits assumed, chain 2 of 2): as the sequence (P01137 other isoform, or with tags, fused parts or gaps R249A R249A) above, with S4C, A249R counted along it
T1 sequence (Q14392 20-627, chain 1 of 2): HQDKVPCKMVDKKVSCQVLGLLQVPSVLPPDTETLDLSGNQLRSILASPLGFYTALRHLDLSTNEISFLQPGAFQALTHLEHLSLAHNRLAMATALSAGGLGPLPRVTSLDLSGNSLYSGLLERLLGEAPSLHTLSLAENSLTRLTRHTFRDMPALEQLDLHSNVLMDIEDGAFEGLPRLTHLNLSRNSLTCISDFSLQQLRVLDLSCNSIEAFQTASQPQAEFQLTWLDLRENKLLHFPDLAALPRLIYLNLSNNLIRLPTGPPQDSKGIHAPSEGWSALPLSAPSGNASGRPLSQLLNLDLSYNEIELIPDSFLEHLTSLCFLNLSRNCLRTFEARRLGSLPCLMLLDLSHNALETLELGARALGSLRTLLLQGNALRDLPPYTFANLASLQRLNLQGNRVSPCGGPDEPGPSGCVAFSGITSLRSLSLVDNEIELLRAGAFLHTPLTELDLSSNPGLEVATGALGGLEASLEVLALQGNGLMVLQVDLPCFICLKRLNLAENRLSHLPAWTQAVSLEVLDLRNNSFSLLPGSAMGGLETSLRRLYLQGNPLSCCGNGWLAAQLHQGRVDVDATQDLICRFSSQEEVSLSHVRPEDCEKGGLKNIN
T1 sequence (P01137 30-390, chain 2 of 2): as the sequence (P01137 other isoform, or with tags, fused parts or gaps R249A R249A) above, with S4C, A249R counted along it
hGARP-proTGFβ1 complex on cells, sequence (Q14392 20-662 limits assumed, chain 1 of 2): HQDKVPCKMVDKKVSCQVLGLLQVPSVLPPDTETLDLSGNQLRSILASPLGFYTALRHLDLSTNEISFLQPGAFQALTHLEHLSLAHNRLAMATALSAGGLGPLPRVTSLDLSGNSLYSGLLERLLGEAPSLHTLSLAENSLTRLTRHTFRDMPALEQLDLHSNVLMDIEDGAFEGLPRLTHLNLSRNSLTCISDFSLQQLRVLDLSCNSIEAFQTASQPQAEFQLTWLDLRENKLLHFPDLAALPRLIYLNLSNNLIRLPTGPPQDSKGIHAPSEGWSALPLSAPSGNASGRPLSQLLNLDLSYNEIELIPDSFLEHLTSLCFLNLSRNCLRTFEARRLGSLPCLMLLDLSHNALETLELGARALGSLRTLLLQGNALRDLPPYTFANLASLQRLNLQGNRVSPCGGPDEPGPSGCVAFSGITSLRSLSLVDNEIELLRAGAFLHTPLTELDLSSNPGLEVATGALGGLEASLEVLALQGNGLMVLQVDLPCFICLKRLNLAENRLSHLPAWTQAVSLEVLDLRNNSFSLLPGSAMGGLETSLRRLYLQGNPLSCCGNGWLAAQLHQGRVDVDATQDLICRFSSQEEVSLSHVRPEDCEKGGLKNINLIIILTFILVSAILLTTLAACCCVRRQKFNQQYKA
hGARP-proTGFβ1 complex on cells, sequence (P01137 30-390 limits assumed, chain 2 of 2): as the sequence (P01137 other isoform, or with tags, fused parts or gaps R249A R249A) above, with S4C, A249R counted along it
hLRRC33-proTGFβ1 complex on cells, sequence (Q86YC3 19-692 limits assumed, chain 1 of 2): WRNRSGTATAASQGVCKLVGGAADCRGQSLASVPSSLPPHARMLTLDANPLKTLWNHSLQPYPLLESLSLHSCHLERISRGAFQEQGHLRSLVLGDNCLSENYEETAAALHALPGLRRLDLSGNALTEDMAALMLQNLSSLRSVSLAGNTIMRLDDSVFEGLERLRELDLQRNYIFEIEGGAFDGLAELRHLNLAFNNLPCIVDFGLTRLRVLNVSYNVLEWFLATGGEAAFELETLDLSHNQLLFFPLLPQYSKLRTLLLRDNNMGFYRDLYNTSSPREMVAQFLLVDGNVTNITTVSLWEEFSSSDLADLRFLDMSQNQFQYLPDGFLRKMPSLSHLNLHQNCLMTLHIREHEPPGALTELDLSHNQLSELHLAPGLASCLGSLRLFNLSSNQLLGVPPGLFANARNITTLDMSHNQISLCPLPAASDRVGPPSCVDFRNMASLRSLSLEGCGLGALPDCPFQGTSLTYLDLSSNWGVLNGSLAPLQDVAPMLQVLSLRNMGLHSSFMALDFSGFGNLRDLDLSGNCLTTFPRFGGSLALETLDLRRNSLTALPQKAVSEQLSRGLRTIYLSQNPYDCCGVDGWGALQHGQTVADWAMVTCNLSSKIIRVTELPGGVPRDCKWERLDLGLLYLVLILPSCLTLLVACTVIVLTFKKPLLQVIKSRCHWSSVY
hLRRC33-proTGFβ1 complex on cells, sequence (P01137 30-390 limits assumed, chain 2 of 2): as the sequence (P01137 other isoform, or with tags, fused parts or gaps R249A R249A) above, with S4C, A249R counted along it

| IC50, reporter cell assay of TGFβ1 activation [1] | IC50, reporter cell assay of TGFβ1 activation [2] | IC50, reporter cell assay of TGFβ1 activation [3] | IC50, reporter cell assay of TGFβ1 activation [4] | Kd [5] | Kd [6] | Kd [7] | Kd [8] | koff (human proTGFβ1 C4S [9]) | Kd [10] | Kd [11] | Kd [12] | Kd [13] | koff (human proTGFβ1 C4S [14]) | binding result (human proTGFβ1 C4S/R249A) | Binder |
| --- | --- | --- | --- | --- | --- | --- | --- | --- | --- | --- | --- | --- | --- | --- | --- |
| 0.776 nM | 3.39 nM | 0.867 nM | 1.38 nM | 0.778 nM | 0.148 nM | 0.508 nM | 0.165 nM | 0.00561 s⁻¹ | 1.4 nM | 0.171 nM | 3.2 nM | 0.36 nM | 0.00278 s⁻¹ |  | Ab2 (antibody, human IgG4 S228P, kappa, V domains shown) VH: EVQLLESGGGLVQPGGSLRLSCAASGFTFADYAMTWVRQAPGKGLEWVSAISGSGAATYFADSVKGRFTISRDNSKNTLYLQMNSLRAEDTAVYYCARVSSGHWDFDYWGQGTLVTVSS VL: DIQLTQSPSSLSASVGDRVTITCRASQSISSYLNWYQQKPGKAPKLLIYAASNLQSGVPSRFSGSGSGTDFTLTISSLQPEDFATYYCQQTYTVPLTFGGGTKVEIKR |
|  |  |  |  |  |  |  |  |  |  |  |  |  |  | binds | Ab2 Fab (Fab, V domains shown, Fab of Ab2; C-terminally 6x-His tagged in the crystallography work) VH: EVQLLESGGGLVQPGGSLRLSCAASGFTFADYAMTWVRQAPGKGLEWVSAISGSGAATYFADSVKGRFTISRDNSKNTLYLQMNSLRAEDTAVYYCARVSSGHWDFDYWGQGTLVTVSS VL: DIQLTQSPSSLSASVGDRVTITCRASQSISSYLNWYQQKPGKAPKLLIYAASNLQSGVPSRFSGSGSGTDFTLTISSLQPEDFATYYCQQTYTVPLTFGGGTKVEIK |
